Biological target: T1, CD147 (Homo sapiens, UniProt P35613)
T1 construct: FFPE tissue sections from a selected panel of human cancer tissue arrays; tissue Chaoying Biotechnology Co., LTD, China; host or cells: human cancer tissue arrays (lung, ovarian, stomach, esophagus, breast, cervical, liver, colon cancer), FFPE
T1 sequence (P35613 22-269 isoform P35613-2 limits assumed): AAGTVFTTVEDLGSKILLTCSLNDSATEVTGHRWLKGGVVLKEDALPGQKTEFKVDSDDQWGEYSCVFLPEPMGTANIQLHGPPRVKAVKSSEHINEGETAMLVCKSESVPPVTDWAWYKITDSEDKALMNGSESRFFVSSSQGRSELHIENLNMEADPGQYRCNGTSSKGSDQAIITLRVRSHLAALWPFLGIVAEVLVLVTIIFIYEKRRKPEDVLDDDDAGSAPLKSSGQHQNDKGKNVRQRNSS
Assay: Immunohistochemical detection of CD147 in human cancer tissue arrays (tissue cross reactivity)
Assay type: binding
Experimental: To test the specificity of Metuzumab (HcHAb18), tissue cross reactivity of Metuzumab was evaluated in FFPE tissue sections from a selected panel of human cancer tissue arrays (Chaoying Biotechnology Co., LTD, China.). Slides were microwaved for 10 min in 10 mM sodium citrated (pH 6.0), cooled for 30 min at 25° C. After incubating for 10 min in 3% H2O2 to block endogenous peroxidase, and blocking for 1 hr in 10% goat serum, slides were incubated overnight in a humidity chamber with biotinylated Metuzumab (30 μg/ml). Binding was visualized with streptavidin-conjugated peroxidase (ZsBio, China) and DAB detection system (ZsBio, China). Sections were analyzed using a bright-field microscope. The staining results were evaluated by 2 experienced pathologist in a blinded manner and classified into four categories: of 0 (no visible staining), 1+ (light brown), 2+ (mid-brown), and 3+ (dark brown), respectively, with the same intensity covering more than 75% of the staining area.

## Metuzumab: human-mouse chimeric anti-CD147 IgG1, heavy chain SEQ ID NO: 4, light chain SEQ ID NO: 3, Mannose-5 glycoform lacking fucose and xylose
Colon cancer
  Positive rate: 82.00%
  Sensitivity response rate: 82.00%
  Specificity: 84.00%
  Tumor tissues specifically bound (positive/total): 41/50
Colon cancer, number 50
  Staining level 0 (no visible staining), number of tissues: 9
  Staining level 1+ (light brown), number of tissues: 8
  Staining level 2+ (mid-brown), number of tissues: 26
  Staining level 3+ (dark brown), number of tissues: 7
Esophagus cancer
  Positive rate: 93.75%
  Sensitivity response rate: 93.75%
  Specificity: 81.25%
  Tumor tissues specifically bound (positive/total): 30/32
Esophagus cancer, number 32
  Staining level 0 (no visible staining), number of tissues: 2
  Staining level 1+ (light brown), number of tissues: 6
  Staining level 2+ (mid-brown), number of tissues: 13
  Staining level 3+ (dark brown), number of tissues: 11
Liver cancer
  Positive rate: 85.00%
  Sensitivity response rate: 85.00%
  Specificity: 75.00%
  Tumor tissues specifically bound (positive/total): 17/20
Liver cancer, number 20
  Staining level 0 (no visible staining), number of tissues: 3
  Staining level 1+ (light brown), number of tissues: 11
  Staining level 2+ (mid-brown), number of tissues: 6
Lung cancer
  Positive rate: 88.24%
  Sensitivity response rate: 88.24%
  Specificity: 91.67%
  Tumor tissues specifically bound (positive/total): 60/68
Lung cancer, number 68
  Staining level 0 (no visible staining), number of tissues: 8
  Staining level 1+ (light brown), number of tissues: 5
  Staining level 2+ (mid-brown), number of tissues: 23
  Staining level 3+ (dark brown), number of tissues: 32
Mammary cancer
  Positive rate: 90.00%
  Sensitivity response rate: 90.00%
  Specificity: 77.50%
Mammary cancer, number 40
  Staining level 0 (no visible staining), number of tissues: 4
  Staining level 1+ (light brown), number of tissues: 6
  Staining level 2+ (mid-brown), number of tissues: 11
  Staining level 3+ (dark brown), number of tissues: 19
Mammary tissue
  Positive rate: 22.50%
Mammary tissue, number 40
  Staining level 0 (no visible staining), number of tissues: 31
  Staining level 1+ (light brown), number of tissues: 5
  Staining level 2+ (mid-brown), number of tissues: 2
  Staining level 3+ (dark brown), number of tissues: 2
Normal cervix uteri
  Positive rate: 0%
Normal cervix uteri, number 4
  Staining level 0 (no visible staining), number of tissues: 4
  Staining level 1+ (light brown), number of tissues: 0
  Staining level 2+ (mid-brown), number of tissues: 0
  Staining level 3+ (dark brown), number of tissues: 0
Normal colon
  Positive rate: 16.00%
Normal colon, number 50
  Staining level 0 (no visible staining), number of tissues: 42
  Staining level 1+ (light brown), number of tissues: 5
  Staining level 2+ (mid-brown), number of tissues: 2
  Staining level 3+ (dark brown), number of tissues: 1
Normal esophagus
  Positive rate: 18.75%
Normal esophagus, number 16
  Staining level 0 (no visible staining), number of tissues: 13
  Staining level 1+ (light brown), number of tissues: 3
  Staining level 2+ (mid-brown), number of tissues: 0
  Staining level 3+ (dark brown), number of tissues: 0
Normal liver
  Positive rate: 25.00%
Normal liver, number 4
  Staining level 0 (no visible staining), number of tissues: 3
  Staining level 1+ (light brown), number of tissues: 0
  Staining level 2+ (mid-brown), number of tissues: 1
  Staining level 3+ (dark brown), number of tissues: 0
Normal lung
  Positive rate: 8.33%
Normal lung, number 12
  Staining level 0 (no visible staining), number of tissues: 10
  Staining level 1+ (light brown), number of tissues: 2
  Staining level 2+ (mid-brown), number of tissues: 0
  Staining level 3+ (dark brown), number of tissues: 0
Normal ovary
  Positive rate: 0%
Normal ovary, number 12
  Staining level 0 (no visible staining), number of tissues: 12
  Staining level 1+ (light brown), number of tissues: 0
  Staining level 2+ (mid-brown), number of tissues: 0
  Staining level 3+ (dark brown), number of tissues: 0
Ovary cancer
  Positive rate: 75%
  Sensitivity response rate: 75.00%
  Specificity: 100%
Ovary cancer, number 12
  Staining level 0 (no visible staining), number of tissues: 3
  Staining level 1+ (light brown), number of tissues: 2
  Staining level 2+ (mid-brown), number of tissues: 3
  Staining level 3+ (dark brown), number of tissues: 4
Breast cancer
  Tumor tissues specifically bound (positive/total): 36/40
Cervical cancer
  Positive rate: 85.00%
  Sensitivity response rate: 85.00%
  Specificity: 100%
  Tumor tissues specifically bound (positive/total): 17/20
Cervical cancer, number 20
  Staining level 0 (no visible staining), number of tissues: 3
  Staining level 1+ (light brown), number of tissues: 2
  Staining level 2+ (mid-brown), number of tissues: 5
  Staining level 3+ (dark brown), number of tissues: 10
Gastric cancer
  Positive rate: 78.26%
  Sensitivity response rate: 78.26%
  Specificity: 80.95%
Gastric cancer, number 23
  Staining level 0 (no visible staining), number of tissues: 5
  Staining level 1+ (light brown), number of tissues: 1
  Staining level 2+ (mid-brown), number of tissues: 7
  Staining level 3+ (dark brown), number of tissues: 10
Normal stomach
  Positive rate: 19.05%
Normal stomach, number 21
  Staining level 0 (no visible staining), number of tissues: 17
  Staining level 1+ (light brown), number of tissues: 3
  Staining level 2+ (mid-brown), number of tissues: 1
  Staining level 3+ (dark brown), number of tissues: 0
Ovarian cancer
  Tumor tissues specifically bound (positive/total): 9/12
Stomach cancer
  Tumor tissues specifically bound (positive/total): 18/23

From patent US9963506B2, “Human-mouse chimeric anti-CD147 antibody with non-fucosylated glycosylation” (Fourth Military Medical University, priority 2015, dated 2018)
